The results in this text go back to patent US20040009502A1 (published 2004).

Test [1] addresses T1, mLATS2b fused to the GAL4 DNA binding domain (pGBKT7-mLATS2b) (mouse, UniProt P04386 1-147 (Saccharomyces cerevisiae entry)).
T1 construct: expressed in yeast AH109; also called clone 3-1; mLATS2/2b
As to the kind of experiment: yeast two-hybrid.

For test [2], the target named is T2, mLATS2N96 fused to the GAL4 DNA binding domain (pGBKT7-mLATS2N96) (mouse, UniProt P04386 1-147 (Saccharomyces cerevisiae entry)).
T2 construct: Made by removing the Pst I fragment from pGBKT7-mLATS2b; also called N-terminal 96 amino acids of mLATS2/2b
As to the kind of experiment: yeast two-hybrid (growth on quadruple dropout plates).

The target of test [3] is T3, mLATS2 fused to the GAL4 DNA binding domain (pGBKT7-mLATS2) (mouse, UniProt P04386 1-147; Q7TSJ6 1-1042).
T3 construct: Made by inserting the Bsm I-Xho I fragment of pcDNA3-mLATS2 into pGBKT7-mLATS2b; also called mLATS2/2b
The description is as above.

Test [4] addresses T1, mLATS2b fused to the GAL4 DNA binding …. The description is as above.

B1: mouse Replication Protein Binding Trans-Activator (mRBT1) fused to the GAL4 activation domain (pGADT7-mRBT1) (other, UniProt Q9ERC3 1-197, looked up, not shown: large carriers)
chain: MGGLKRKHSDLEEEEEEEKWDWSPTALRSYQQALLRISLDKVQRSLGPRAPSLRRHVLIHNTLQQLQAAIRLAPAPALPPEPLFLGEEDFSLSTTIGSILRELDTSMDEMEPPLNPAASSSPQNEIVSQADPVFLEALSSRYLGDSGLDDFFLDIDTSAVEKDVALPPPEPPHSLFCSPGSWEWNELDHIMEIILGS
With B1, the results for the binding result in test [1] and in test [2] were “binds” and “no binding”, respectively.

B2: mRBT1C76 fused to the GAL4 activation domain (pGADT7-mRBT1C76) (other, UniProt P04386 768-881, looked up)
chain: ANFNQSGNIADSSLSFTFTNSSNGPNLITTQTNSQALSQPIASSNVHDNFMNNEITASKIDDGNNSKPLSPGWTDQTAYNAFGITTGMFNTTTMDDVYNYLFDDEDTPPNPKKEPQNEIVSQADPVFLEALSSRYLGDSGLDDFFLDIDTSAVEKDVALPPPEPPHSLFCSPGSWEWNELDHIMEIILGS
notes: PCR product encoding the C-terminal 76 amino acids of mRBT1 cloned into EcoR I and Sma I sites of pGADT7; also called C-terminal 76 amino acids of mRBT1
With B2, the binding result in test [3] and in test [4] was “no binding” throughout.

B3: mRBT1N121 fused to the GAL4 activation domain (pGADT7-mRBT1N121) (other, mouse, UniProt Q9ERC3 1-121, looked up, not shown: large carriers)
chain: MGGLKRKHSDLEEEEEEEKWDWSPTALRSYQQALLRISLDKVQRSLGPRAPSLRRHVLIHNTLQQLQAAIRLAPAPALPPEPLFLGEEDFSLSTTIGSILRELDTSMDEMEPPLNPAASSS
notes: Made by removing the Xho I fragment from pGADT7-mRBT1
For B3, the binding result in test [2] is given as “no binding”; in test [4] it was “binds”.
